Test results taken from article PMC4014563, “A High-Throughput Method to Examine Protein-Nucleotide Interactions Identifies Targets of the Bacterial Transcriptional Regulatory Protein Fur”.

Assays:
[1] = molecular target: T1, Fur (ferric uptake regulator) (Neisseria gonorrhoeae F62, UniProt Q51008 1-144); test: IRIS; 400 nM Fur (concentration implied); ~1 dimer/dsDNA; 20 mM Tris-Cl pH 7.9, 5 mM MgCl2, 40 mM KCl, 0.125 mM MnCl2, 2 mM DTT, 10% glycerol, 0.19 ug/uL poly dIdC (EMSA also 3.125 ug/uL BSA), RT; IRIS 2 hr, EMSA 30 min with 12.5 nM probe; settings: protein: recombinant; tags: N-terminal 6xHis (pET15b) cleaved with thrombin and removed; chain copies: 2; label: surface-immobilized; blunt
T1 sequence: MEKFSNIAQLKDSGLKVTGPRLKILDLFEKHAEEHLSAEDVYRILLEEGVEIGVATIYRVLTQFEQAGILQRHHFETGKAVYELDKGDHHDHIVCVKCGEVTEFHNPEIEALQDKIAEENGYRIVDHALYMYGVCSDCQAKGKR

[2] = molecular target: T1, Fur (ferric uptake regulator); test: IRIS; no DSH increase up to 800 nM Fur; 20 mM Tris-Cl pH 7.9, 5 mM MgCl2, 40 mM KCl, 0.125 mM MnCl2, 2 mM DTT, 10% glycerol, 0.19 ug/uL poly dIdC (EMSA also 3.125 ug/uL BSA), RT; IRIS 2 hr, EMSA 30 min with 12.5 nM probe; settings: protein: recombinant; tags: N-terminal 6xHis (pET15b) cleaved with thrombin and removed; chain copies: 2; label: surface-immobilized; blunt
[3] = molecular target: T1, Fur (ferric uptake regulator); test: IRIS; 200 nM Fur; 1 dimer/dsDNA; 20 mM Tris-Cl pH 7.9, 5 mM MgCl2, 40 mM KCl, 0.125 mM MnCl2, 2 mM DTT, 10% glycerol, 0.19 ug/uL poly dIdC (EMSA also 3.125 ug/uL BSA), RT; IRIS 2 hr, EMSA 30 min with 12.5 nM probe; settings: protein: recombinant, tags: N-terminal 6xHis (pET15b) cleaved with thrombin and removed, chain copies: 2, blunt
[4] = molecular target: T1, Fur (ferric uptake regulator); test: IRIS; 400 nM Fur; 0.5 dimer/dsDNA; 20 mM Tris-Cl pH 7.9, 5 mM MgCl2, 40 mM KCl, 0.125 mM MnCl2, 2 mM DTT, 10% glycerol, 0.19 ug/uL poly dIdC (EMSA also 3.125 ug/uL BSA), RT; IRIS 2 hr, EMSA 30 min with 12.5 nM probe; settings: protein: recombinant; tags: N-terminal 6xHis (pET15b) cleaved with thrombin and removed; chain copies: 2; label: surface-immobilized; blunt
[5] = molecular target: T1, Fur (ferric uptake regulator); test: EMSA; Mn2+; apparent Kd; 20 mM Tris-Cl pH 7.9, 5 mM MgCl2, 40 mM KCl, 0.125 mM MnCl2, 2 mM DTT, 10% glycerol, 0.19 ug/uL poly dIdC (EMSA also 3.125 ug/uL BSA), RT; IRIS 2 hr, EMSA 30 min with 12.5 nM probe; settings: protein: recombinant; tags: N-terminal 6xHis (pET15b) cleaved with thrombin and removed; chain copies: 2; label: surface-immobilized (IRIS); 32P (EMSA); blunt

B1: NGO0304 promoter probe (dsDNA)
DNA 1: GAACGAAAATTGATAAAACAAAAGTTAATTAATTGATTGAGAACATAAC
DNA 2: GTTATGTTCTCAATCAATTAATTAACTTTTGTTTTATCAATTTTCGTTC
modifications: 5' amino-C6 on strand 1
binding signal [1]: 2 ± 0.1 nm DSH

B2: NGO1745 promoter probe (dsDNA)
DNA 1: TACAGATGAAGACAATGAGCGTGCTGTTAAAGAGTTATTTAAGTCATTT
DNA 2: AAATGACTTAAATAACTCTTTAACAGCACGCTCATTGTCTTCATCTGTA
modifications: 5' amino-C6 on strand 1
binding result [2]: no binding

B3: NGO0641 promoter probe (dsDNA)
DNA 1: AAAGACAGCAAAGAATTGATTTTATTATAATTTATTTGTAAAGCCATTT
DNA 2: AAATGGCTTTACAAATAAATTATAATAAAATCAATTCTTTGCTGTCTTT
modifications: 5' amino-C6 on strand 1
binding signal ([3]; label: surface-immobilized): 2 ± 0.1 nm DSH

B4: NGO1683 promoter probe (NGO1684 in Table 1) (dsDNA)
DNA 1: GCGGCGATTGTAATATAAGCGGCGGTATTTGTGTAGTTTTCTTCAGACG
DNA 2: CGTCTGAAGAAAACTACACAAATACCGCCGCTTATATTACAATCGCCGC
modifications: 5' amino-C6 on strand 1
binding result [2]: no binding

B5: NGO1845 promoter probe (dsDNA)
DNA 1: CGGCAAACAAGAAAATCATCTTTTTTCTTGTCGTTATGCTTGACTGTCT
DNA 2: AGACAGTCAAGCATAACGACAAGAAAAAAGATGATTTTCTTGTTTGCCG
modifications: 5' amino-C6 on strand 1
binding signal [4]: 1.7 ± 0.3 nm DSH

B6: NGO1284 promoter probe (dsDNA)
DNA 1: ACACGGGAAATAATATCAATATATTGATTTACAAACATAAAAATCATGC
DNA 2: GCATGATTTTTATGTTTGTAAATCAATATATTGATATTATTTCCCGTGT
modifications: 5' amino-C6 on strand 1
binding signal [4]: 1.7 ± 0.03 nm DSH

B7: NGO0073 promoter probe (dsDNA)
DNA 1: CTGTATAAATGATAATGGTTCTATTTTAATAAAGCACAACGCGGCTTGT
DNA 2: ACAAGCCGCGTTGTGCTTTATTAAAATAGAACCATTATCATTTATACAG
modifications: 5' amino-C6 on strand 1 (IRIS)
Kd [5]: 39.8 ± 6.3 nM

B8: NGO1948 promoter probe (dsDNA)
DNA 1: TCTTTCCGTCAAAATACTTTCTTTTTATATTCATTAACTTGTTAAATTA
DNA 2: TAATTTAACAAGTTAATGAATATAAAAAGAAAGTATTTTGACGGAAAGA
modifications: 5' amino-C6 on strand 1
binding signal [4]: 1.7 ± 0.07 nm DSH

B9: NGO1189 promoter probe (dsDNA)
DNA 1: ACTGCCGGTTTGAAAAAAGAATCCATATCGGTGTTTCCGCGCAGGAGGC
DNA 2: GCCTCCTGCGCGGAAACACCGATATGGATTCTTTTTTCAAACCGGCAGT
modifications: 5' amino-C6 on strand 1
binding signal [1]: 2 ± 0.03 nm DSH

B10: NGO0899 promoter probe (dsDNA)
DNA 1: TTTTATGCCGAAAATTGATTTTTTTTAAATTTTTTGTTTCTAAAATTTT
DNA 2: AAAATTTTAGAAACAAAAAATTTAAAAAAAATCAATTTTCGGCATAAAA
modifications: 5' amino-C6 on strand 1
binding signal [1]: 2.2 ± 0.1 nm DSH

B11: NGO1419 promoter probe (dsDNA)
DNA 1: TGACGAAAAAACAAAGAAGTATACTTCTTTTTAGTTATGGTTGATTCCA
DNA 2: TGGAATCAACCATAACTAAAAAGAAGTATACTTCTTTGTTTTTTCGTCA
modifications: 5' amino-C6 on strand 1
binding signal ([3]; label: surface-immobilized): 1.9 ± 0.4 nm DSH

B12: NGO0101 promoter probe (dsDNA)
DNA 1: CATATTTGAATATAAAAAAGAGCATTGTTGCGTTATCCAATGCTGTAAT
DNA 2: ATTACAGCATTGGATAACGCAACAATGCTCTTTTTTATATTCAAATATG
modifications: 5' amino-C6 on strand 1 (IRIS)
Kd [5]: 406 ± 145 nM
binding signal ([3]; label: surface-immobilized (IRIS), 32P (EMSA)): 1.9 ± 0.4 nm DSH

B13: NGO0155 promoter probe (dsDNA)
DNA 1: GATATTTTGTGCTAAAAATTTATATAATATTTAAATTAATATCAAGTTA
DNA 2: TAACTTGATATTAATTTAAATATTATATAAATTTTTAGCACAAAATATC
modifications: 5' amino-C6 on strand 1
binding signal [1]: 1.9 ± 0.1 nm DSH

B14: fur promoter Fur box probe (dsDNA)
DNA 1: CTGCTTGAATATTTTATAAAAGCGAACGATAATCATACGCTTAAGCGGT
DNA 2: ACCGCTTAAGCGTATGATTATCGTTCGCTTTTATAAAATATTCAAGCAG
modifications: 5' amino-C6 on strand 1 (IRIS)
Kd [5]: 31.8 ± 7.9 nM
